The source of these data is PMC7218866, “Impact of Self-Assembled Monolayer Design and Electrochemical Factors on Impedance-Based Biosensing”.

The data set addresses lysozyme (UniProt P00698 19-147). Kind of data set: electrochemical impedance spectroscopy (EIS); dense aptamer SAM (no MCH dilution), ferricyanide reporter; RCT change significant from 8 nM (LOD), up to 12%; 1x HBS, pH 7.4, redox reporter (ferricyanide or methylene blue) in solution; aptamer on gold electrode; temperature not stated. As to conditions: protein: commercial.

lysozyme, sequence (P00698 19-147): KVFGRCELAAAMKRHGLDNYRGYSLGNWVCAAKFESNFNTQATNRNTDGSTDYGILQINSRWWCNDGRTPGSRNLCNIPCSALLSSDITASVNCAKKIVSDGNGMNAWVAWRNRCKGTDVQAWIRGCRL

B1: lysozyme aptamer (thiolated) (ssDNA)
DNA: AGCAGCACAGAGGTCAGATGGCAGGTAAGCAGGCGGCTCACAAAACCATTCGCATGCGGC
modifications: 5' thiol-C6 (SH-C6), immobilized on gold in SAM
With B1, the binding result is reported as “binds”.
